Entries after “also recorded” stand apart in the source; their conditions may differ.
Columns and labels:
[1] = biological target: T1, recombinant human C35 (rhC35) (Homo sapiens, UniProt Q9BRT3); assay: Epitope mapping by Lys-C digestion of rhC35 and Western blot; assay type: binding; conditions: residues numbered from amino terminal methionine of native human C35
T1 construct: made in house; host or cells: E. coli
T1 sequence (Q9BRT3 1-115): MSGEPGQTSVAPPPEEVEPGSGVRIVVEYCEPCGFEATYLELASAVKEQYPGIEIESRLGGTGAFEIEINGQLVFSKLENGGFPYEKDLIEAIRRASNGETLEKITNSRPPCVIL
Excerpt: To localize the epitope specificity of 1B3 and 1F2 antibodies, recombinant human C35 (rhC35) synthesized with a 6×His tag in E. coli was digested with Lys-C endoproteinase. This enzyme cuts after lysine (K) residues in the protein sequence. […] The full sequence of rhC35, including the amino terminal 6×His tag addition is shown. Amino acid positions are numbered relative to the amino terminal methionine (M) of the native human sequence. Note that digestion at the first and third lysine followed by negatively charged residues is inefficient and some longer combination fragments may be generated. Lys-C endoproteinase was added to purified rhC35 at a 50:1 weight ratio and incubated for 18 hours at 37° C. in 25 mM Tris, pH 8.0. The digest was ethanol precipitated and resolubilized in reducing Tricine sample buffer. […] Peptides were transferred to PVDF membranes and the blots depicted in FIG. 10 were either stained with Coomassie blue (lanes 1-3 of both left and right panels) to detect all peptides or processed with one of the following: 1 μg/ml of the murine 1F2 anti-C35 antibody followed by alkaline phosphatase conjugated goat anti-mouse antibody (lane 4 of left panel); 1 μg/ml of the 1B3 anti-C35 immunoglobulin variable regions linked to human constant regions (MAb11) followed by alkaline phosphatase conjugated goat anti-human antibody (lane 5 of left panel); or anti-6×His tag mouse antibody (Amersham) followed by alkaline phosphatase conjugated goat anti-mouse antibody (lane 4 and 5 of right panel). BCIP/NBT substrate was added and developed to detect the secondary reagents. Molecular weight markers are indicated in the flanking lanes of both panels.
In FIG. 10, the indicated band A migrates at the position of undigested rhC35. Note that band B stains with 1F2 but not MAb11 (1B3) anti-C35 antibody while band C stains with neither 1F2 nor MAb11 (1B3) antibody. Since bands B and C both do stain with anti-6×His tag antibody to the 6×His tag at the amino terminus of rhC35, it may be concluded that both fragments lack C-terminal peptide fragments. […]

[2] = test system: C35-positive MDA231 tumor cells; assay: Two C35 antibodies and paclitaxel in MDA231 xenograft (FIG. 12); assay type: in vivo, Swiss nude mice; conditions: antibody 20 mg/kg i.v. twice weekly for three weeks, paclitaxel 30 mg/kg i.p. days 17 and 24
Experimental: As illustrated in FIG. 12 and described in this example, methods of treating cancer directed to the administration of two C35 antibodies in combination with a chemotherapeutic agent were tested. Five million C35-positive MDA231 tumor cells were implanted subcutaneously in the mammary fat pads of Swiss nude mice. Groups of at least five mice each received the following treatments, beginning on day 17 post-graft: • 1. No Treatment (Control Group) • 2. 30 mg/kg i.p. injection of paclitaxel on days 17 and 24. • 3. 30 mg/kg i.p. injection of paclitaxel on days 17 and 24, together with 400 μg per i.v. injection (20 mg/kg) of 1F2 murine monoclonal antibody starting on day 17 and continuing twice weekly for three weeks. • 4. 30 mg/kg i.p. injection of paclitaxel on days 17 and 24, together with 400 μg per i.v. injection (20 mg/kg) of […] murine monoclonal antibody starting on day 17 and continuing twice weekly for three weeks. • 5. […]
Average mouse tumor volume was measured at various time points post-graft. Two measurements were taken with vernier calipers on each tumor; tumor volume was calculated using the formula (length×width^2)/2. […]

C35 [3] = biological target: T2, C35 (Homo sapiens, UniProt Q9BRT3); assay: Characterisation of hybridoma antibodies (ELISA, Western blot, immunohistochemistry, competitive binding ELISA); conditions: for binding to recombinant C35 protein: ELISA and Western Blot
T2 sequence (Q9BRT3 1-115): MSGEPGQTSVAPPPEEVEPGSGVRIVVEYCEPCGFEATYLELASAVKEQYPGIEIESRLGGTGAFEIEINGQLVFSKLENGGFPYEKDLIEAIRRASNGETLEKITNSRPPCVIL
Experimental: Hybridoma cell lines 1F2.4.1 and 1B3.6.1, specific for C35 polypeptides, were prepared using hybridoma technology. (Kohler et al., Nature 256:495 (1975); Kohler et al., Eur. J. Immunol. 6:511 (1976); Kohler et al., Eur. J. Immunol. 6:292 (1976); Hammerling et al., in: Monoclonal Antibodies and T-Cell Hybridomas, Elsevier, N.Y., pp. 571-681 (1981)). Briefly, hybridoma cell lines were generated using standard PEG fusion to the non-secreting myeloma cell line NS-1 (P3/NS1/1-AG4-1, ATCC #TIB-18) of splenocytes from BALB/c mice immunized with syngeneic BCA34 fibroblast tumor cells transduced to over express C35. Following PEG fusion to NS-1, the hybridomas were grown in methylcellulose semi-solid media. Approximately 2 weeks later, hybridoma colonies were isolated into 96 well plates and individual supernatants were tested for reactivity with C35 by ELISA, Western blot, and immunohistochemistry. Positive hybridoma colonies were subcloned and screened for reactivity twice to ensure clonality. Antibodies were isolated from hybridoma supernatants by protein G affinity purification using standard methods. […] In addition, the present inventors developed intracellular staining flow cytometry assays for quantitative analysis using antibodies from hybridoma cell line 1F2 conjugated to Alexa-647 fluorochrome. Each of these antibodies is distinct, yet both are specific for C35 protein. It is possible to immunoprecipitate C35 protein from cell lysates with either of these antibodies and detect with the other.

rC35 = biological target: T3, rC35 (Homo sapiens, UniProt Q9BRT3); assay: Biacore affinity testing of MAb 163 (1:1 kinetic model); assay type: binding
T3 construct: made in house; host or cells: E. coli
T3 sequence (Q9BRT3 1-115): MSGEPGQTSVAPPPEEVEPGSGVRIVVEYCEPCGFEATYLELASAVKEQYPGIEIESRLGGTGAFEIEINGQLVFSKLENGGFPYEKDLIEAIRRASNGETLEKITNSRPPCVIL
Experimental: To measure affinity using Biacore, a CM5 chip surface was prepared by immobilizing Goat Anti-Human IgG Fc through amine coupling. The monoclonal human antibody MAb 163 was then captured by flow over the chip containing the Goat Anti-Human IgG. The rC35 was then serial diluted into two separate series to cover a wide range of concentration points and binding efficiencies, and then the C35 was allowed to flow over the chip containing bound MAb 163. The binding was recorded in a series of sensograms. The binding was evaluated using BIAevaluation software, where the Ka and Kd were calculated by fitting the curves and correcting for Mass Transfer.

[4] = test system: C35-positive 21MT1-D cells; assay: Immunofluorescence staining (FMAT), C35-positive cells; assay type: cell-based, human; conditions: MAb163 at 3, 1, 0.3 or 0.1 μg/ml
C35-negative H16N2 cells = assay: Immunofluorescence staining (FMAT), C35-negative cells; assay type: cell-based, human; conditions: MAb163 at 3, 1, 0.3 or 0.1 μg/ml
C35 [5] = biological target: T2, C35; assay: Western blot, tumor specific binding of MAb 163; set-up: endogenous in cells; host or cells: 21MT1-D human breast tumor cell line
C35 [6] = biological target: T2, C35; assay: Immunoprecipitation of C35 from 21MT1-D cell lysates; assay type: binding; set-up: endogenous in cells; host or cells: 21MT1-D human breast tumor cell line; conditions: detected with rabbit anti-C35 polyclonal sera; IgG negative control did not
Experimental: The number “15” indicates the molecular weight marker at 15 kDalton. The number “163” indicates the mAb163 monoclonal antibody. “Neg IgG” indicates an IgG negative control antibody.
Briefly, 10 ml of MAb163 in CHO cell supernatant was buffer-exchanged into PBS and concentrated to 1 ml. Concentrated MAb 163 was added to protein A beads for greater than one hour. After washing, protein A/MAb163 was added to C35-positive 21MT1-D cell lysates for 2 hours. After washing the beads, the protein was eluted with reducing sample buffer at 100° C.
Immunoprecipitated samples were analyzed by Western blot using rabbit anti-C35 polyclonal sera. As shown in the left lane of FIG. 22, lysate from 100,000 21MT1-D cells was included on the Western blot as a control. The number “15” in FIG. 22 indicates a molecular weight marker at 15 kDalton.

KA (rC35; BIAevaluation, 1:1 kinetic model) [M⁻¹] | ka (rC35; MAb 163 captured on anti-human IgG Fc CM5 chip, rC35 in flow) [M⁻¹ s⁻¹] | immunoprecipitation of C35 (C35 [6]) | Molecule | epitope specificity [1] | tumor growth, one antibody with paclitaxel [2] | competitive binding ELISA (C35 [3]) | binding to recombinant C35 protein (C35 [3]) | immunohistochemistry staining (C35 [3]; formalin fixed, paraffin embedded) | immunofluorescence staining [4] | immunofluorescence staining (C35-negative H16N2 cells) | binding in Western blot, tumor cell lysate (C35 [5]; 21MT1-D human breast tumor cell lysate, MAb163 4.4 ug/ml) | binding in Western blot, normal cell line (C35 [5]; H16N2 normal immortalized human breast cell line lysate) | binding in Western blot, recombinant C35 (C35 [5]; rC35 purified from E. coli, 100 ng/lane)
– | – | – | 1F2: mouse monoclonal anti-C35 antibody from hybridoma 1F2.4.1, gamma1 isotype, kappa light chain (SEQ ID NO:4, 6) (antibody, V domains shown) VH: DVQLQESGPGLVKPSQSLSLTCSVTGYSITSGYFWNWIRQFPGNKLEWMGYISYDGSNNSNPSLKNRISFTRDTSKNQFFLKFNSVTTDDSAAYYCTRGTTGFAYWGQGTLVTVSA VL: QIVLTQSPAIMSASPGEKVTISCSASSSVSYMNWYQQKPGSSPKPWIYHTSNLASGVPARFSGSGSGTSYSLTISSMEAEDAATYYCQQYHSYPPTFGGGTKLEIK | specific for an epitope within the C35 residues 48-104 | neither the 1F2 nor 1B3 administered individually with the chemotherapeutic agent paclitaxel was effective in inhibiting tumor growth | bind different epitopes of the C35 protein | specifically bind recombinant C35 protein in ELISA and Western Blot assays | specifically stain formalin fixed, paraffin embedded C35 positive tumors and cell lines | – | – | – | – | –
– | – | – | 1B3: mouse monoclonal anti-C35 antibody from hybridoma 1B3.6.1, gamma1 isotype, kappa light chain (SEQ ID NO:8, 10) (antibody, V domains shown) VH: EVQLQESGPSLVKPSQTLSLTCSVTGDSITSGYWNWIRKFPGNKLEYVGYISYSGGTYYNPSLKSRISITRDTSKNHYYLQLNSVTTEDTATYYCARGAYYGGAFFPYFDVWGAGTTVTVSS VL: DVQITQSPSFLAASPGETITINCRASKYISKHLVWYQEKPGETKKLLIYSGSTLQSGLPSRFSGSGSGTDFTLTISSLEPEDFAMYYCQQHNEYPLTFGAGTKLELK | specific for an epitope within C35 residues 105-115 | neither the 1F2 nor 1B3 administered individually with the chemotherapeutic agent paclitaxel was effective in inhibiting tumor growth | bind different epitopes of the C35 protein | specifically bind recombinant C35 protein in ELISA and Western Blot assays | – | – | – | – | – | –
2.96e+08 | 284000 | immunoprecipitated C35 protein | MAb 163: fully human C35-specific antibody; VH from clone H730 (SEQ ID NO:62), VL from clone L74 (SEQ ID NO:66) (antibody, V domains shown, VH of MAb163 (H730); VL of MAb163 (L74)) VH: EVQLVESGGGLVKPGGSLRLSCEVSGITFSNAWMSWVRQAPGKGLEWVGRIKSKTDGGTTDYAAPVKGRFTISRDDSKNTLYLQMNSLKTEDTAVYYCSIGYYYDSSFKYGMDVWGQGTTVTVSS VL: DIQMTQSPATLSASVGDRVTITCRASQSISRWLAWYQQKPGQAPKVLIYKASTLQSGVPSRFSGSGSGTEFSLTINSLQPDDFATYYCQQYYSYLRTFGQGTKLEIK | recognizes an epitope within amino acid residues 48 to 87 of C35; also recorded: specific for an epitope within amino acid residues 48 to 87 of C35 | – | – | – | – | show dose-dependent immunofluorescence | do not show any immunofluorescence staining | binds native C35 monomer in tumor cell lysate | binding is absent in the normal cell line | binds the rC35 monomer (16 kD), dimer (˜32 kD), and larger aggregates
